Test results: paper PMC4410396 (Acta Naturae, 2015)

Key:
[1] = test system: T1, NC(=O)c1ccc[n+]([C@@H]2O[C@H](COP(=O)(O)OP(=O)(O)OC[C@H]3O[C@@H](n4cnc5c(N)ncnc54)[C@H](O)[C@@H]3O)[C@@H](O)[C@H]2O)c1; experiment: purified protein; type: biochemical, Pseudomonas sp. 101; details: saturating formate (>15 KM), 0.1 M sodium phosphate pH 7.0, 30°C
T1 construct: recombinant, plasmid pPseFDH8, E. coli BL21(DE3)/pLysS; no tag mentioned; Phenyl Sepharose and Sephadex G-25

[2] = test system: T2, NC(=O)c1ccc[n+]([C@@H]2O[C@H](COP(=O)(O)OP(=O)(O)OC[C@H]3O[C@@H](n4cnc5c(N)ncnc54)[C@H](OP(=O)(O)O)[C@@H]3O)[C@@H](O)[C@H]2O)c1; experiment: purified protein; type: biochemical, Pseudomonas sp. 101; details: saturating formate (>15 KM), 0.1 M sodium phosphate pH 7.0, 30°C
T2 construct: recombinant, plasmid pPseFDH8, E. coli BL21(DE3)/pLysS; no tag mentioned; Phenyl Sepharose and Sephadex G-25

MorFDH = target: T3, MorFDH (Moraxella sp., UniProt O08375, A199G); experiment: spectrophotometric NAD(P)H formation at […] nm; type: biochemical; details: saturating formate (>15 KM); 0.1 M sodium phosphate pH 7.0, 30°C; read-out: KMKNAD^+
T3 construct: gene fdh; recombinant, plasmid pMorFDH2, E. coli BL21(DE3)/pLysS; no tag mentioned; Phenyl Sepharose and Sephadex G-25
T3 sequence (O08375 2-402 A199G): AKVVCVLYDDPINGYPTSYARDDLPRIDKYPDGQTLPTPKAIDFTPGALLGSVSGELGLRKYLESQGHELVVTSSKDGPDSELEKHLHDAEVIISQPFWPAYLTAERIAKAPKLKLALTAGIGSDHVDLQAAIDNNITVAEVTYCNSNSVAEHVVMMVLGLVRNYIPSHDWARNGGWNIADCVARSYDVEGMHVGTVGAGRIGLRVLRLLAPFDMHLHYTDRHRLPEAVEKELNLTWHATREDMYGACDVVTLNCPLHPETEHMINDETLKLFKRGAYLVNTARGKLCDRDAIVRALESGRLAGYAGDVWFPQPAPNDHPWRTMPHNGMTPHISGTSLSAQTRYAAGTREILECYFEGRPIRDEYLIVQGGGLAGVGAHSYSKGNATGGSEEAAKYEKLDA

purified protein = substrate: NC(=O)c1ccc[n+]([C@@H]2O[C@H](COP(=O)(O)OP(=O)(O)OC[C@H]3O[C@@H](n4cnc5c(N)ncnc54)[C@H](OP(=O)(O)O)[C@@H]3O)[C@@H](O)[C@H]2O)c1; experiment: purified protein; type: biochemical, Pseudomonas sp. 101; details: saturating formate (>15 KM), 0.1 M sodium phosphate pH 7.0, 30°C, printed with an asterisk

Work on “PseFDH (Pseudomonas sp. 101; A199G/D222S)” yielded a Km [1] of 540 ± 42 µM, a kcat [1] of 5.0 ± 0.2 s⁻¹ and a Km [2] of 280 ± 25 µM. The kcat [2] was 1.8 ± 0.2 s⁻¹.

With PseFDH (Pseudomonas sp. 101; A199G) the Km [1] was 35 ± 2 µM.

PseFDH (Pseudomonas sp. 101; D222S) was tested, and the Km [1] was 710 ± 45 µM and the kcat [1] was 5.0 ± 0.3 s⁻¹.

NC(=O)c1ccc[n+]([C@@H]2O[C@H](COP(=O)(O)OP(=O)(O)OC[C@H]3O[C@@H](n4cnc5c(N)ncnc54)[C@H](O)[C@@H]3O)[C@@H](O)[C@H]2O)c1 [NAD^+] showed a Km (MorFDH) of 45 ± 3 µM.

B1: PseFDH (Pseudomonas sp. 101) (protein)
chain: AKVLCVLYDDPVDGYPKTYARDDLPKIDHYPGGQTLPTPKAIDFTPGQLLGSVSGELGLRKYLESNGHTLVVTSDKDGPDSVFERELVDADVVISQPFWPAYLTPERIAKAKNLKLALTAGIGSDHVDLQSAIDRNVTVAEVTYCNSISVAEHVVMMILSLVRNYLPSHEWARKGGWNIADCVSHAYDLEAMHVGTVAAGRIGLAVLRRLAPFDVHLHYTDRHRLPESVEKELNLTWHATREDMYPVCDVVTLNCPLHPETEHMINDETLKLFKRGAYIVNTARGKLCDRDAVARALESGRLAGYAGDVWFPQPAPKDHPWRTMPYNGMTPHISGTTLTAQARYAAGTREILECFFEGRPIRDEYLIVQGGALAGTGAHSYSKGNATGGSEEAAKFKKAV
notes: recombinant, plasmid pPseFDH8, E. coli BL21(DE3)/pLysS; no tag mentioned; Phenyl Sepharose and Sephadex G-25
B1 was tested, and the kcat (purified protein) was 1.3 ± 0.1 s⁻¹.
